System: DAKAR-FLAG fusion protein (murine DAKAR residues 1 to 786 fused to FLAG)

## purified recombinant active caspase 3 (Pharmingen)
  cleavage products on SDS-PAGE / Western blot after in vitro incubation with the caspase: in vitro incubation of DAKAR with 100 ng caspase 3 resulted in formation of approximately 40 and 45 kDa cleavage products

## purified recombinant active caspase 8 (Pharmingen)
  cleavage products on SDS-PAGE / Western blot after in vitro incubation with the caspase: incubation of DAKAR with 100 ng caspase 8 resulted in the formation of a 22 kDa cleavage product

From patent US20030087411
